Data on 1 protein can be found in FireProtDB (doi:10.1021/bi00181a602).

“And” between values parts separate entries of the source, which are not always exact repeats. Equal entries are not always repeated.

For this data set the following is noted: Mus musculus; pH 3.5; 23 °C; GdnHCl; Fluorescence; citrate-phosphate 100 mM; reversible: yes; whole UniProt chain shown.

B1: Neurotrophin-3 wild type, P20181 (protein)
chain: MSILFYVIFLAYLRGIQGNSMDQRSLPEDSLNSLIIKLIQADILKNKLSKQMVDVKENYQSTLPKAEAPREPEQGEATRSEFQPMIATDTELLRQQRRYNSPRVLLSDSTPLEPPPLYLMEDYVGNPVVANRTSPRRKRYAEHKSHRGEYSVCDSESLWVTDKSSAIDIRGHQVTVLGEIKTGNSPVKQYFYETRCKEARPVKNGCRGIDDKHWNSQCKTSQTYVRALTSENNKLVGWRWIRIDTSCVCALSRKIGRT
In the case of B1, the denaturant m value was 3.4 kcal/mol/M and 4 kcal/mol/M and 5.1 kcal/mol/M; the “denaturant midpoint (higher = more stable)” value was 1.4 M and 2.2 M and 2.1 M; the unfolding free energy is 12.7 kcal/mol and 17 kcal/mol and 19 kcal/mol.
